{
  "source": "patent US20080305097",
  "system": "stromal cell-derived factor 1 (SDF-1)",
  "data": [
    {"substance": "cathepsin K (CTK)", "values": [
      {"measurement": "SDF-1 cleavage by CTK (SDS-PAGE and western blot, time course of minutes)", "result": "The results obtained show fast and site specific SDF-1 cleavage by CTK"}
    ]}
  ]
}
